Reference: paper PMC9029856, “Impact of Different [Tc(N)PNP]-Scaffolds on the Biological Properties of the Small cRGDfK Peptide: Synthesis, In Vitro and In Vivo Evaluations” (Molecules, 2022)
Values joined by “and” are separate entries in the source; they are usually repeats but may differ in a detail not shown here. Identical values can stand only once. Like-named read-outs stand apart in the source and are kept apart here.

Tests used:
[1] = type: physicochemical
Experimental: To explore the impact of the PNP ligand on the lipophilicity of the complexes, Log Ps in a mixture of n-octanol and PBS were determined. The lipophilicity decreased in the order ^99mTc1 > ^99mTc2 > ^99mTc3. The lipophilic character of each compound correlated well with the corresponding HPLC retention time and protein binding behavior.
Determination of log P values. n-Octanol/PBS partition coefficients were determined by vortex mixing (20 min) 3.0 mL of n-octanol, 3.0 mL of PBS and 100 µL of the radiolabeled compound purified as above. After centrifugation (3000 g for 10 min), aliquots (100 µL) of both the organic and the aqueous phases were collected and counted with a γ-counter.

[2] = tested on: human melanoma M21 (αvβ3 positive) cells; experiment: Cell uptake and internalization in M21 cells; type: cell-based
Experimental: Cell uptake and internalization studies were performed on receptor-positive human melanoma M21 (expressing high levels of αvβ3 integrin and moderate level of integrin αvβ5), human breast cancer MCF7 (exclusively expressing αvβ5), and receptor-negative human melanoma M21L cell lines. The expression of αvβ3 and αvβ5 by cells was already evaluated by flow cytometry (Table 2). The stability of each radiolabeled peptide in the culture media before and after cell exposure was assessed.
Experiments were conducted in suspension at 37 °C. The working conditions were set up to avoid cell damage and/or death. With the use of these information, the cells were pre-incubated in sterile glass tubes at 37 °C for 10 min, in the presence or not of cRGDfK pentapeptide (50 µL; 1.65 mM).
Then, 1 mL of the cell suspension (1 × 10^6 cells/mL) was incubated with intermittent agitation with 10 µL (10 µCi) of ^99mTc1–3. At 90 min, the cells were moved in Eppendorf microcentrifuge tubes (1.5 mL) and the incubation was interrupted by centrifugation (3000 rpm for 5 min at 10 °C). The supernatant (S1) was separated from the pellet. The cell pellet was treated 10 min at room temperature with saline acetate buffer (CH3COOH 0.2M/NaCl 0.5 M) to remove the membrane-bound compound. After centrifugation (3000 rpm for 10 min at 10 °C), the supernatant (S2) was separated from the pellet (P1), and each fraction was collected, placed in a separated counting tube, and the activity was measured using a NaI counter (Cobra II, Packard) to estimate both the cell uptake and the internalized fraction.
The uptake of complexes was expressed as percentage cell uptake of the total activity on 10^6 cells (% cell uptake/10^6 cells).
All assessments were conducted in triplicate for three experiments.

[3] = set-up: species or system Sprague Dawley rats; settings: rat, in vivo, iv, 15 uCi/100 uL
Experimental: Pharmacokinetics and metabolism.
Female Sprague Dawley rats weighing 180–200 g were anesthetized with an intraperitoneal injection of a mixture of Zoletil (40 mg/kg) and xylazine (2 mg/kg). A jugular vein was surgically exposed, and the solution containing the radiolabeled peptide was injected (15 µCi/100 µL). The rats (n = 3) were scarified by cervical dislocation at different times after injection. The blood was withdrawn from the heart with a syringe immediately after death and quantified. Organs were excised, rinsed in saline, weighed, and the activity was counted in a NaI counter. The results were expressed as the percentage of injected activity per gram of tissue (%IA/g) to be able to compare our results with those reported in the literature.

[4] = tested on: M21 (αvβ3-positive) and M21L (αvβ3-negative) melanoma tumors; type: in vivo, NSG mice; settings: 120 min p.i.
Experimental: In vivo tumor uptake. The in vivo integrin targeting properties of the [^99mTcN(PNP)]-labeled peptide were evaluated in M21 (integrin-positive) and M21L (integrin-negative) melanoma-bearing mice by comparing the percentage of tumor uptake of the three compounds in tumors and the respective target-to-non-target ratios. Biodistribution data outlined some differences in organ uptake compared with those attained in rats at the same injection time because the rate of metabolism is different in each animal species. […] The high renal uptake of radiotracers is partially due to their rate of excretion as well as to a specific uptake by integrins expression in the kidneys; for ^99mTc3, the M21-to-kidney ratio was 1.37.
Human melanoma M21(αvβ3-positive) were injected subcutaneously (s.c. 1 × 10^6 cells) in the right flank of six week-old male NSG mice (Charles River Laboratories). As a negative control, M21L (αvβ3-negative) were inoculated s.c. (1 × 10^6 cells) in the left flank of the same mice. Fifteen days after the inoculation, when the tumors are palpable (5–3 mm), the mice were injected in the tail vein with the selected radiolabeled peptide (20 µCi/100 µL of PBS). A group of six animals was sacrificed at 120 min p.i. by CO2 inhalation. A sample of blood was collected and tumors and normal tissues of interest were dissected, rinsed to remove the excess of blood, weighted, and their radioactivity measured using a NaI counter. Results are expressed as the percentage of injected activity per gram (% IA/g) and tumor-to-organ ratios were calculated.

[Tc(N)(H2NS-cRGDfK)(PNP3)]^+ [^99mTc1]
Log P [1]: −1.72 ^1 | cell uptake (sum of surface bound and internalized radioactivity), blocked ([2]; M21 blocked by an excess of cold cRGDfK, 37 °C, 90 min): 2.15 ± 0.17 % cell uptake/10^6 cells | cell uptake (sum of surface bound and internalized radioactivity) ([2]; M21 unblocked, 37 °C, 90 min): 2.88 ± 0.09 % cell uptake/10^6 cells | specific/nonspecific ratio, internalized radioactivity only ([2]; internalized radioactivity, melanoma cell lines): 4.5 | Blood ([3]; 0.5 h): 0.81 ± 0.05 %IA/g | Heart ([3]; 0.5 h): 0.26 ± 0.05 %IA/g | Intestine ([3]; 0.5 h): 0.65 ± 0.16 %IA/g | Kidneys ([3]; 0.5 h): 2.71 ± 0.18 %IA/g | Liver ([3]; 0.5 h): 0.96 ± 0.10 %IA/g | Lungs ([3]; 0.5 h): 0.64 ± 0.09 %IA/g | Muscle ([3]; 0.5 h): 0.21 ± 0.09 %IA/g | Spleen ([3]; 0.5 h): 0.65 ± 0.09 %IA/g | Stomach ([3]; 0.5 h): 0.53 ± 0.07 %IA | Urine ([3]; 0.5 h): 27.2 ± 11.7 %IA | Blood ([3]; 1 h): 0.30 ± 0.04 %IA/g | Heart ([3]; 1 h): 0.15 ± 0.01 %IA/g | Intestine ([3]; 1 h): 0.60 ± 0.12 %IA/g | Kidneys ([3]; 1 h): 1.57 ± 0.13 %IA/g | Liver ([3]; 1 h): 0.75 ± 0.02 %IA/g | Lungs ([3]; 1 h): 0.43 ± 0.01 %IA/g | Muscle ([3]; 1 h): 0.13 ± 0.06 %IA/g | Spleen ([3]; 1 h): 0.51 ± 0.04 %IA/g | Stomach ([3]; 1 h): 0.41 ± 0.02 %IA | Urine ([3]; 1 h): 33.1 ± 5.6 %IA | Blood ([3]; 2 h): 0.09 ± 0.01 %IA/g | Heart ([3]; 2 h): 0.10 ± 0.02 %IA/g | Intestine ([3]; 2 h): 0.40 ± 0.07 %IA/g | Kidneys ([3]; 2 h): 0.92 ± 0.20 %IA/g | Liver ([3]; 2 h): 0.68 ± 0.06 %IA/g | Lungs ([3]; 2 h): 0.25 ± 0.03 %IA/g | Muscle ([3]; 2 h): 0.10 ± 0.06 %IA/g | Spleen ([3]; 2 h): 0.47 ± 0.04 %IA/g | Stomach ([3]; 2 h): 0.34 ± 0.04 %IA | Urine ([3]; 2 h): 54.3 ± 1.9 %IA | Blood ([3]; 4 h): 0.05 ± 0.01 %IA/g | Heart ([3]; 4 h): 0.08 ± 0.01 %IA/g | Intestine ([3]; 4 h): 0.38 ± 0.01 %IA/g | Kidneys ([3]; 4 h): 0.88 ± 0.09 %IA/g | Liver ([3]; 4 h): 0.66 ± 0.07 %IA/g | Lungs ([3]; 4 h): 0.16 ± 0.04 %IA/g | Muscle ([3]; 4 h): 0.06 ± 0.01 %IA/g | Spleen ([3]; 4 h): 0.45 ± 0.00 %IA/g | Stomach ([3]; 4 h): 0.29 ± 0.02 %IA | Urine ([3]; 4 h): 55.9 ± 7.1 %IA | M21/M21L ratio [4]: 1.83 | M21/blood ratio [4]: 29.96 | M21/kidneys ratio [4]: 0.77 | M21/liver ratio [4]: 0.88 | M21/lung ratio [4]: 2.53 | M21/muscle ratio [4]: 9.15 | M21L tumor uptake ([4]; integrin-negative M21L control tumor): 1.73 ± 0.19 %IA/g | M21 tumor uptake ([4]; integrin-positive M21 xenograft): 3.2 ± 0.6 %IA/g and 3.17 ± 0.60 %IA/g | Blood ([4]; tumor-bearing mice): 0.07 ± 0.02 %IA/g | Heart ([4]; tumor-bearing mice): 0.47 ± 0.03 %IA/g | Intestine ([4]; tumor-bearing mice): 2.30 ± 0.10 %IA/g | Kidneys ([4]; tumor-bearing mice): 4.10 ± 0.37 %IA/g | Liver ([4]; tumor-bearing mice): 3.59 ± 0.31 %IA/g | Lungs ([4]; tumor-bearing mice): 1.25 ± 0.23 %IA/g | Muscle ([4]; tumor-bearing mice): 0.37 ± 0.04 %IA/g | Spleen ([4]; tumor-bearing mice): 1.61 ± 0.01 %IA/g | Stomach ([4]; tumor-bearing mice): 1.22 ± 0.15 %IA
